Test system: Jurkat cells
Assay: Cell proliferation, Cell Counting Kit-8
Type: cell-based, human
Conditions: 10 μg expression plasmid; Jurkat cells versus HEL cells and 293 cells
Protocol: 10 μg of a plasmid for the expression of wild-type HDAC4 and the HDAC4 dominant negative variant (H863L) prepared in Example 6 was transfected to Jurkat cells, HEL cells and 293 cells.
1×10^7 Jurkat cells (ATCC, TIB-152) were transformed by the electroporation method (BIO-RAD, Gene Pulser II, voltage 300 V, charge 975 μF, 400 μL). After transformation, 2.5 mL of RPMI 1640 containing 10% FBS (MOREGATE) (10% FBS RPMI 1640) was added, and this mixture was dispensed to a 96-well white plate in a ratio of 50 μL/well. After cultivation under conditions of 37° C., 5% CO2 and saturated humidity for 5 hours, a liquid mixture of Phorbol 12-Myristate 13-Acetate (PMA, SIGMA), Ionomycin (SIGMA) and Anti-CD28 antibody (Pharmingen) in 10% FBS RPMI 1640 was added at 50 μL/well (the final concentrations were 50 ng/mL, 1 μg/mL and 75 ng/mL, respectively) to stimulate the Jurkat cells. After cultivation under conditions of 37° C., 5% CO2 and saturated humidity for 4 hours, the number of cell was confirmed using the Cell Counting Kit-8 (DOJIN) 8.75×10^6 HEL cells (accession number JCRBOO62, JCRB) were transformed by the electroporation method (BIO-RAD, Gene Pulser II, voltage 1750 V, charge 10 μF, 365 μL). After transformation, 2 mL of 10% FBS RPMI 1640 was added, and this mixture was dispensed to a 96-well white plate in a ratio of 50 μL/well. […]

B1: HDAC4 dominant negative variant (H863L): HDAC4 variant with H863L mutation, amino acid sequence SEQ ID NO:6, expressed from plasmid (protein, listed as Homo sapiens)
chain: MSSQSHPDGLSGRDQPVELLNPARVNHMPSTVDVATALPLQVAPSAVPMDLRLDHQFSLPVAEPALREQQLQQELLALKQKQQIQRQILIAEFQRQHEQLSRQHEAQLHEHIKQQQEMLAMKHQQELLEHQRKLERHRQEQELEKQHREQKLQQLKNKEKGKESAVASTEVKMKLQEFVLNKKKALAHRNLNHCISSDPRYWYGKTQHSSLDQSSPPQSGVSTSYNHPVLGMYDAKDDFPLRKTASEPNLKLRSRLKQKVAERRSSPLLRRKDGPVVTALKKRPLDVTDSACSSAPGSGPSSPNNSSGSVSAENGIAPAVPSIPAETSLAHRLVAREGSAAPLPLYTSPSLPNITLGLPATGPSAGTAGQQDTERLTLPALQQRLSLFPGTHLTPYLSTSPLERDGGAAHSPLLQHMVLLEQPPAQAPLVTGLGALPLHAQSLVGADRVSPSIHKLRQHRPLGRTQSAPLPQNAQALQHLVIQQQHQQFLEKHKQQFQQQQLQMNKIIPKPSEPARQPESHPEETEEELREHQALLDEPYLDRLPGQKEAHAQAGVQVKQEPIESDEEEAEPPREVEPGQRQPSEQELLFRQQALLLEQQRIHQLRNYQASMEAAGIPVSFGGHRPLSRAQSSPASATFPVSVQEPPTKPRFTTGLVYDTLMLKHQCTCGSSSSHPEHAGRIQSIWSRLQETGLRGKCECIRGRKATLEELQTVHSEAHTLLYGTNPLNRQKLDSKKLLGSLASVFVRLPCGGVGVDSDTIWNEVHSAGAARLAVGCVVELVFKVATGELKNGFAVVRPPGHHAEESTPMGFCYFNSVAVAAKLLQQRLSVSKILIVDWDVHHGNGTQQAFYSDPSVLYMSLLRYDDGNFFPGSGAPDEVGTGPGVGFNVNMAFTGGLDPPMGDAEYLAAFRTVVMPIASEFAPDVVLVSSGFDAVEGHPTPLGGYNLSARCFGYLTKQLMGLAGGRIVLALEGGHDLTAICDASEACVSALLGNELDPLPEKVLQQRPNANAVRSMEKVMEIHSKYWRCLQRTTSTAGRSLIEAQTCENEEAETVTAMASLSVGVKPAEKRPDEEPMEEEPPL
modifications: Dominant negative mutant (H863L) of human histone deacetylase-4 (HDAC4) gene
cell proliferation (number of cells): cell proliferation inhibition specific for Jurkat cells

— patent publication US20070123452A1, “Method of selecting novel immunosuppressant” (Astellas Pharma Inc., priority 2002, published 2007)
